Numbering of substitutions follows the chain as printed. Names may count otherwise.
T1: recombinant selenocysteine-containing rat TrxR1 (rat, UniProt O89049 1-499, selenocysteine (selenocysteine-containing; low degree of incorporation presumed by the paper))
T1 construct: rat cytosolic thioredoxin reductase 1, selenocysteine-containing; Used for all enzymatic assays (insulin reduction); also called recombinant selenocysteine-containing TrxR
T1 sequence (looked up): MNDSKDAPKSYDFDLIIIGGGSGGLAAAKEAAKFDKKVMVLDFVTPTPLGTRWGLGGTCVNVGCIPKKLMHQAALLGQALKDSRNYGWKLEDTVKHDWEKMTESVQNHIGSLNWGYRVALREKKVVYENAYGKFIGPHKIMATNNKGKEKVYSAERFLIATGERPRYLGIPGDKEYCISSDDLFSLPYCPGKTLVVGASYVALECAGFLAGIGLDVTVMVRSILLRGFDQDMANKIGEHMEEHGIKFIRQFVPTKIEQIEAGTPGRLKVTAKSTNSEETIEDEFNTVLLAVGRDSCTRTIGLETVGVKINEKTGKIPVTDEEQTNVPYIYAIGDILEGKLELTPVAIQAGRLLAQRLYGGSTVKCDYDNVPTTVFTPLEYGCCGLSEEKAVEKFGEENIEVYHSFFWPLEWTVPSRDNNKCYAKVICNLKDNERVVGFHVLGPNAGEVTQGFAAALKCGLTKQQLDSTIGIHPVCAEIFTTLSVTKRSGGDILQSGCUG

B1: human Trx1 K39E (natural protein)
chain: MVKQIESKTAFQEALDAAGDKLVVVDFSATWCGPCKMIEPFFHSLSEKYSNVIFLEVDVDDCQDVASECEVKCMPTFQFFKKGQKVGEFSGANKEKLEATINELV
B2: human Trx1 K94E (natural protein)
chain: B1 chain with E39K, K94E
B3: human Trx1 A17R,I53R (natural protein)
chain: B1 chain with A17R, E39K, I53R
B4: human Trx1 K36E (natural protein)
chain: B1 chain with K36E, E39K
B5: human Trx1 D60N (natural protein)
chain: B1 chain with E39K, D60N
B6: human Trx1 D58,60,61N (natural protein)
chain: B1 chain with E39K, D58N, D60N, D61N
B7: human Trx1 Q63R (natural protein)
chain: B1 chain with E39K, Q63R
B8: human Trx1 S67H (natural protein)
chain: B1 chain with E39K, S67H
B9: human Trx1 K72E (natural protein)
chain: B1 chain with E39K, K72E
B10: human Trx1 C73H (natural protein)
chain: B1 chain with E39K, C73H
B11: human Trx1 Q63R,K94E (natural protein)
chain: B1 chain with E39K, Q63R, K94E
B12: human thioredoxin 1 (Trx1), wild-type (natural protein)
chain: B1 chain with E39K
B13: human Trx1 C32,35S (redox-inactive active site double mutant) (natural protein, UniProt P10599 1-105, looked up)
chain: B1 chain with C32S, C35S, E39K
notes: human cytosolic thioredoxin 1, both active site cysteinyl residues exchanged for seryl residues; also called hTrx1C32,35S; double cysteinyl mutant

Experiments:
[1] = target: recombinant selenocysteine-containing rat TrxR1 (rat) (UniProt O89049)
[2] = target: human thioredoxin reductase 1 (TrxR1) U498C mutant (human) (UniProt Q16881); assay: differential scanning fluorimetry; 10 uM hTrxR (U498C), hTrx1 0 to 100 uM, Sypro Orange 1:500, 50 mM Tris, 1 mM EDTA, pH 7.4; Tm of the first denaturation step of TrxR plotted against log [Trx] (Hill plot), EC50 converted to Kd
[3] = target: T1, recombinant selenocysteine-containing …; assay: enzyme inhibition kinetics (insulin reduction assay, NADPH depletion); 1.25 nM recombinant rat selenocysteine-containing TrxR, 150 uM NADPH, 160 uM insulin, 50 mM Tris-EDTA pH 7.5; Lineweaver-Burk plots, Ki from secondary plot of slopes against the concentration of the redox-inactive mutant; details: both partners purified

Row | KM of TrxR1 for the Trx1 variant, insulin reduction-coupled assay [1] | Kd [2] | Ki [3] | Binder
1 | 1.45 µM | 9.68 µM |  | B1
2 | 3.78 µM |  |  | B2
3 | 2.73 µM |  |  | B3
4 | 9.82 µM | 5.28 µM |  | B4
5 | 3.26 µM |  |  | B5
6 | 5.83 µM |  |  | B6
7 | 6.37 µM |  |  | B7
8 | 1.36 µM |  |  | B8
9 | 2.22 µM |  |  | B9
10 | 1.24 µM |  |  | B10
11 | 7.09 µM |  |  | B11
12 |  | 13.6 µM |  | B12
13 |  | 9.8 µM | 5.3 µM | B13
